# Laboratory results reported in the domain aggregation screens of Martell et al. (2025).
# Test: soluble fraction after stress (log2 fold change); higher = more stays soluble; pooled small domains, quantitative proteomics
# Settings: stress: pH 4
# In short: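 Following acid stress at pH 4, the amount of each small protein domain still soluble was measured in pooled custom libraries by high-throughput quantitative proteomics. Its fold change, on a log2 scale, is higher when more of the domain stayed soluble. This fold change is taken as a measure of aggregation propensity.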
row,Sequence,soluble fraction (log2)
1,HMTTTAGTAVVQTGNSGKLNLREQAYSNAGILGRYSNGTIVTVLQKGSAWSYVEVQGQKGYMMSKFLRFT,-0.386
2,HMNEKGTNSTINEITRISKPGRRVYVGSAEIPKVKSGRGLVLISTSKGVMTGAEAAKAKLGGELLLKV,0.129
3,HMASENISYSQFINQVKNSMVESVSIEADGKTISGKYKSGSSFVTYGLNDPKLVDDLLSNNVEIL,0.0122
4,HMPFDRTVQLAGARARQLQALPRYREVLRLLDEGMNPREIGQVLDPPVTRQRASALIQQAKRAQMLGLFED,-0.0649
5,HMSQNVSFTVDSGQAGLRLDVFLSQADPAFSRSQIKYAIEEGDVTVNGKEPKVSQHLKDGDIVELHLE,0.114
6,HMDEEAIELTQEVMKLPPKQREVILLYYYHGLTGKEIAKALGISGAAVSKRLKQAKNQLHFALK,0.0819
7,HMKLTNNDFIRLKTFMYNNYGINLENKKTLIETRLAIVVKRLGFNDFKSYIDNLMRDKTGEQASIIVGKLT,-0.141
8,HMNRPYVELFSGLGQEEAQQIVQKLQEDEVDYKFSGDSTILVKEDVVDQTKATLVQEGYPKS,-0.392
9,HMEETEVPPVTGYEQSKASEVLTGKGLIPDIITVADEETAAGYVIRTDPASGEKVPSGTTVKVYVSSGP,-0.0585
10,HMIAPQISSGKVNTKELNVRSGPATTFGIVKKLPLNAMVGIFEEKNGWFRIATGQWVSKTYVDL,0.187
11,HMEAVGLTPRQGDVLALLLQGKPNKLIARDLNLSVETVKDHVAAVLRALGVSTRTQAVLAVSQMQQQAAQ,-0.221
12,HMRHTRQRQAVLDALVRSGQALSPQDLLGQAKSAVPSLNLSTVYRQIKGLQDAGQIVRVELPGQPPRFEM,-0.0347
13,HMEGIWAVFYDGKPINLKSSSLVANYPGPKYKKVSFSNPGHAENLAKKLNAQHNTDKFGVYLLKSGDKFS,0.219
14,HMNVGKYILTLAAKEGYSQSDVARRTGISRQMLSYIIAGERKLTLPQALKIESLLSLKTGTLILMQDED,0.219
15,HMSKLQETEIPVALEVEKIPGLSNELKQKLLKIKPQTIGQASRISGITPAAISILMIYIKKNESISAVK,-0.399
16,HMRPDDPYLVIGASREMGDEELKRHYRRLVAETHPDRGIARGLPAEAIAIATRRLAAINAAWDAIERERGL,-0.158
17,HMALYSEQVSEIEKALMSLPPKYQLVMLLLYAEDLKYEQIAEILDEPIGTVKTKIHRARKILKERF,-0.0112
18,HMTVGENTYELIKKDIIFGVLPPLKKLKLQELKKIYNASVSTLREILSRLTGDGFVFSEEQKGFYVSPV,-0.33
19,HMEMDPKELGRQVLAKRKEKGWSQEQLGKMAEISRNYVSQIERGEADSISIKIINRLAIALGVSPSDLGE,0.21
20,HMKFNEKQNEVRIAIMNFIIDNKRPFHMKQDGYDALEGITLSGRHEFQDILDVLHSRDGFSADEEGNINF,-1.69
21,HMFFMTMGEKIQLLRKKQNWSQETLAEKLSVSRQAVSLWERDESQPELDKLLKLAKIFSVTTDYLIDDSVT,-0.0472
22,HMSLAISGRNQLHGIIEEVRSDGLLSQIYLRVGDQVLTAVITRDAVAELKLKRGDTAVAIMKSTEVMIARE,0.0191
23,HMKDGAKYFQLFGLLKNEINRGIYQSGQKIPGENELAEKYGMSRQTVRQALSLLEQESLIERRQGSGTYVR,0.185
24,HMAIIQSNNIFKSQKEIVDEILVELDIPKDKWNFFHMLISSGYKDEFDTNRIYEIIQTNYNMMDR,-0.693
25,HMKGPLKDLGPDPVTGKSILVKDGKFGTYVTDGETNATLRRGDIVELLTLERGMELLAEKRARATQ,-0.0516

row,Sequence,soluble fraction (log2)
1,HMPVSTLLGDNLRRLRTAKGYTQEAVADAARISVAAYRNYETGRAIPKVNTLLAIARALGVSLNDLVTE,-0.00358
2,HMIINFDAIKLTTELNKYKRHKAIPNTFFDGTYTILDVRELYNDLTPKAQKIADELIEHYNVDVK,-1.69
3,HMVDALYGQGARVMRDFSEGSGIVKLDNGETWTGRLSPAASGASLYVGDRVIVTRIDGAIAEVTPP,-0.446
4,HMIAITVGSKVRVKAGATFSDGTKPFTEVYNTVYDVQLLSRNGKEARIGIGEQWTGWMYISDLYPADQ,0.00391
5,HMGAARRFEMSEGGSQKFWEVAVEGPALTVRFGKLGTAGTTQTKTLASAEAAAKEADKLVREKTKKGYAP,-0.596
6,HMNEAVVVPDVKGLTLDEADEFFKNSKLRYNVVDSVFSKDVAPGAIVELVPVAGSKVKENRIVFVTINAQ,-0.517
7,HMVELRDGSLPLARGSVGDLVAEVQRKLGVAADGIFGPQTERAVRAFQARAGLASDGIVGPLTWSALFGA,0.117
8,HMSLLQTRQRHEALAALGFFKGDVAAEWSAASTEALRAAQASLGIRVDGKWGPQTEDAIGKALAERQG,0.108
9,HMASVLTAKLSEREVDVLNLLARGFTNADIAAQLHLSEGTVRNHVSTIFAKLDVNDRTQAAVIAIRHGL,-0.176
10,HMMEERVIEFANVLRRNGVRVSLAENMDAFRALKSLGISDPLLFRHALRATLIKRGSDIQPFEELFDFFFL,-1.08
11,HMDFKKKIIESWADIAETLRGLTVDSNISDWTTKQKNAYETLADKAELAGLSIADLNSILVELGYM,-0.378
12,HMDDKLKKLEEVFEMQEGTLTPDMRLDELEEWDSMTRLSLIVMMEDDYGKKVKRSEVMNYTTVQDIVDSME,-0.946
13,HMSDPTDRLVLEAALKALGEEERQVVLLHAASGLKHREIARDLGLPLSTVLSRYSRALKKLQRYLTEEGVH,-0.461
14,HMTEKSTRSVPQEHEGKRLDVAAALLFPVYSRSELARRIDAGYLLLNGKGSTPKTKVHELDLIELLEV,-1.65
15,HMDIFSSFVAIKNANVRELPTAKSAQVATLSKGSEVTALGKVKGKNWYLVARDGKELGYVFGSLIAEAET,0.143
16,HMTYADTRDLLIRRGMELLTEQGIAATSIERVLQSTGIPKGSFYHYFATKHDFTLAVMDAYHHY,-0.324
17,HMTTTYTVPKVTGMTLEEAREDPDVVGRFTIVEGEKVTSDTVPVGQIVSQEPAAHRQVGEDGLTITVNIS,-0.2
18,HMAFKNGLLQTSKKVTLVRKVDGVTMRFDSLRAASVFLGRNKGYLSNVIKNGRTLDNYEIVVGE,0.0346
19,HMDPEQLKIAINTKMPFGKYSGRPLLLLPEPYLVWFKQQGFPDSKLGSQLAMMYEVKLNGLEQMLMPLL,-0.506
20,HMGEWHQMLRSWGETELKNGRQNILDEAVPAFERAMIETALAHTSGRKKDAALLLGWGRNTLTRKLQEHSI,-0.349
21,HMDAKQLQSLKNNNEQLAGFIVRLTNFYEGLSPDIDAELSKLRSHLSGKVDYTLATVSINKINQLFMLEP,-1.75
22,HMNIFKLYEENIGPLTPMIADILKEDEAEFPDYWIREAIEIAVKKNARNWKYVHAVLESWQKE,-0.259
23,HMSHPNAPLTPEGRRRLAVLIVEDGWTIRRAAERFQVSPATASKWARRYRAGESLTDRSSRP,0.0223
24,HMGTEITEQRAKEIALENAKVAESDVTAMRVKKEMDDGVWRYDVEFYVQNKEYDYEINAMDGTILSVDYD,0.0797
25,HMTAMQYVTIKDIADALGISKSSVSRALAGDVHNVSAQTIERVRAKALEMGYLRNNAAVNLR,0.22

row,Sequence,soluble fraction (log2)
1,HMAIDYYQTLINLGYKLQDRGDYWQTSAIHRGGDNPTALQIYKNTGVWKDYVSGGGFKPFKALVEKSD,-0.35
2,HMKYNETEFKNLVAKLYNGEIEIVGKFTGLSYPILVKDKYGIMLSQKANLILNYRPTINIALNKTEYAMN,-0.4
3,HMVDIEQAEFLSRQFDLLLARLDDPTIEWQDIADIRSEYTGENEHRDTIRKGSKLFYEYLQAGWIKN,-0.809
4,HMTTTPTSQMVTELRSRGWTLRALAQRLGVGHASINRWANGVTPDRDLVAALRALVASGEVP,-0.00752
5,HMSTGGDLTQRERELLGLMARGLSNQEISKRLTIAMPTVKFHVTNILAKLHADNRTEAVLVALKNKLVAL,-0.175
6,HMKQVNVVSVIGQSEANAKTTLTGLGLKVNVAYEEDTSKADGIVLKQSLEGGKTVNEGTTITITVNKIA,-0.567
7,HMKGPAFAKIDLTQLPAGLTSFLNTNAAGFKLDYAVAITKDSVIIEYHVGVTIGTAKKEFHLDPNFQLLP,-0.1
8,HMATQTGTVKWFNEGKGFGFIAPDDGSKDLFAHFSEIKTTGFKTLAEAQRVEFEVTEGRKGLQASNIK,-0.244
9,HMLSGGEVKRIEIATILARKSGLMIFDEPEAGIDLWSFARLVETFEDIRSNTSGSLVIISHQ,-0.0926
10,HMQLPTNAAAILRYLSSGAVKGVGSATAVRIVEKFGEETLNILEQDPLRLAEIRGISRDKAKKIGEDFASQ,0.0714
11,HMQHQSGLKSGEFEAISQQLQALLKENPLSLQEIKDKMQVTENHLIKVVSYLVSEEIIRQENGYLK,-1.67
12,HMKQQNFADLAGRFVFNADNEVVFNFGKHKNVPVATVLKNEPGYYGWMMGGDFPLFTKKILKQIKEA,-0.952
13,HMDDFNLSPREKDVLGHLVKGNSYKMIADELQIGYDTVHSHIKKIYKKLHVNSMSEAVAKALKNKL,-0.26
14,HMKIELSDNEKIIYDLLSSQHVLLSEIKDKAGLSNKAWDKSTKSLRKLGLIAVEKKDDDIYISKL,0.247
15,HMARDSYNGVQRTISTLLGQGNYDRAYDVAVGARGQMSKQQWSDVAKRIYEVSGIKIDDSVKY,-0.0224
16,HMNKMIDAPDLTGLSLEDAKLVLEANKLQLGTVSHEPSDKPEDVVISQDPMEGQEIQQGGKVNLVVSYGD,-0.104
17,HMEDKIEESLEDNISELFAKTKDKYTLINDLYSKGYTVEELSRFSGLPSGEVRLVISLNSKN,-0.183
18,HMTGIVVVDVVGQVGRPGLVSLPAGSRVADAITAAGGATPEADVSLLNQARLVIDGEQIRVPRPGEVIAA,0.22
19,HMRPDSFEAGEAEAGSRLDRLLAARLGIPRNQVQQWIGGGRVTVDAEPVRASLVVRAGMRIAWDPPPPP,0.0905
20,HMINIQYSYNDGKETLHNLSPEVIAEKIMDDPNGYHIVWKQGMVGWVNANDIDDIAKLLRQKK,-0.0166
21,HMPHTDATDKQIIALILETLKDGQKHSVSEMTFPGIPREKTAQLLHQMIEEETVRIQNGVLFLPH,-0.118
22,HMDNEYDKVYQAALSKLEGYPRSSITTAVIKDVVAQTIKYFEIKNFGYEDTIINQLQSAFTVKSSS,0.0114
23,HMDMSDFEVVRDMYLTGKVWNAGDIVEAKGITGEVVRKGTNYLSFVDKNGKVHKAWLHEIEL,-0.968
24,HMTNKKIILEIFQNSDKPLIVEEISKKMFEKTGKKMILSTIYRNLKNMEDVGILKKIYNEDGSYMYIF,-1.07
25,HMSRQDYLQTIYRLSVGKGYTTNKKIADFLSVSKPSVTEMIGKLQGEGLVAMDGAHIFLTEDGAEQ,0.108
